B1: VHH-3: llama anti-hCCR8 VHH, SEQ ID NO: 29 (protein)
VHH: QVQLQESGGGLVQAGGSLRLSCVASGSTSSIRRIGWYRQAPGKQRELVARFSSGGGTNYADFVKGRFTISGDNAKNTMYLQMNSLKPEDTAVYYCGARRLLGTSRVDYWGQGTQVTVSS
B2: VHH-1: llama anti-hCCR8 VHH, SEQ ID NO: 27; in Tables 11 and 13 tested as human IgG1 Fc fusion (protein)
VHH: QVQLQESGGGLVQAGGSLRLSCVASGSTSSIRRIGWYRQAPGKQRELVARFSSGGGTNYADFVKGRFTISGDNAKNTMYLQMNSLKPEDTAVYYCSARRLLGTSRVDYWGQGTQVTVSSHHHHHH
modifications: left off: small tags and cut ends

Assays:
hCCR8 [1] = molecular target: T1, hCCR8 (Homo sapiens, UniProt P51685); assay: Flow cytometry binding of purified VHHs to HEK293 cells expressing hCCR8; details: monovalent VHH, FIG. 1
T1 construct: expressed in transfected cells
T1 sequence (P51685 whole entry): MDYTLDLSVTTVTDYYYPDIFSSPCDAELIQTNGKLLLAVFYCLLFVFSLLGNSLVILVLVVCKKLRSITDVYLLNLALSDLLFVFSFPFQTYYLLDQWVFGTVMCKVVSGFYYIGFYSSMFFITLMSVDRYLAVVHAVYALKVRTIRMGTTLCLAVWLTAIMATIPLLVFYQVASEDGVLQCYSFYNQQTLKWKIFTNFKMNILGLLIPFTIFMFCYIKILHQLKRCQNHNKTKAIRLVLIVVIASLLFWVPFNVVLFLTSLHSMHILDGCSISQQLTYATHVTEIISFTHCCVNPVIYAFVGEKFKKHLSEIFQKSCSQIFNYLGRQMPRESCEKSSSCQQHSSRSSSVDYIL
Description: Recombinant cells expressing hCCR8 were resuspended to a final concentration of 1.0×10^6 cells/ml in FACS buffer. Surface expression of hCCR8 on transiently transfected HEK293 cells was confirmed by flow cytometry of HEK293 cells stained with PE anti-hCCR8 (Clone 433H, BD Biosciences, #566897) antibody. Dilutions of purified VHHs were incubated with cells for 60 min. Individual samples were distributed into 96-well v-bottom plates and incubated for one hour at 4° C. Bound VHH were then detected with an anti-VHH specific antibody (Goat anti-alpaca VHH, Jackson ImmunoResearch, #128-605-232). […] Binding was determined in parallel on HEK293 cells stably expressing the closely related receptor hCCR7 (SEQ ID NO: 41), as control for binding specificity.

[2] = molecular target: T2, HuT-78 cells that naturally express human CCR8 (Homo sapiens, UniProt P51685); assay: Flow cytometry binding of yeast-display optimized VHH-Fc antibodies to HuT-78 cells; details: Table 13
T2 construct: HuT-78 cells that naturally express human CCR8 were used as target cells; endogenous in cells; host or cells: HuT-78
T2 sequence (P51685 whole entry): as above
Description: Top VHH sequences were chosen from the FACS sorted populations based on an analysis of improved binding performance relative to the parental sequences and evidence of sequence enrichment by NGS. Candidate VHH were then cloned as VHH-Fc fusions to the short hinge of the IgG1 Fc domain (SEQ ID NO: 34), expressed in HEK293 cells as described earlier and purified for binding evaluation. Bmax values are shown as normalized to VHH-1 or VHH-2 depending on the clone family. […] Mutations are referenced by position according to the IMGT definition.

hCCR8 [3] = molecular target: T1, hCCR8; assay: Flow cytometry binding of VHH-Fc fusion antibodies to hCCR8 on stably transfected HEK293 cells; details: Table 11
Description: VHH-Fc fusion antibodies were evaluated for their ability to bind to hCCR8 on stably transfected HEK293 cells by means of flow cytometry. Cells were incubated with different concentrations of the bivalent VHH-Fc fusions for 60 minutes at 4° C., followed by two washes with FACS buffer, followed by 30 minutes incubation at 4° C. with the Zenon R-Phycoerythrin Anti-human IgG (ThermoFisher Scientific, #Z-25455), and two additional washing steps. Data were plotted and fit using GraphPad Prism software. EC50 and Bmax values individual antibodies were calculated from the resulting dose-response curves. Bivalent VHH-Fc fusions (Seq ID NOs: 31, 33, and 87-103) of 19 different VHH domains (SEQ ID NOs: 27, 28, and 70-86) were tested for cell binding and results are shown in Table 7. […]
VHH-Fc fusion DNA constructs were then generated comprising encoding humanized VHH sequences (SEQ ID NOs: 106-111) fused in frame to the human IgG1 (SEQ ID NO: 34) directly to the short hinge sequence in the pFuse expression vector, and were expressed, purified and analyzed for binding to HEK293 cells expressing human CCR8 as in Example 5. Binding curves for VHH-Fc antibodies comprised of parental VHH-1 and the humanized VHH derivatives VHH-1.2-Fc and VHH-1.3-Fc are shown in FIG. 9A. Binding curves for VHH-Fc antibodies comprised of parental VHH-2 and the humanized VHH derivatives VHH-2-Fc, VHH-2.2-Fc and VHH-2.3-Fc, are shown in FIG. 9B. Cell binding EC50 values, normalized Bmax (relative to respective parental clone) data and humanizing mutations are shown in Table 10 below.
Approaches such as in vitro affinity maturation and rational mutagenesis can be performed to regain binding affinity and/or stability lost through humanization. In vitro affinity maturation generally involves building and amino acid substitution library where amino acid positions are varied across the CDRs and/or framework at a defined set of positions using sets of amino acids chosen to introduce new chemical diversity. The paratope residues within the CDR regions are of course key to antigen binding and care must be taken not to disrupt important structures while attempting to evolve improve antibody behavior. One approach to identify positions that are important to the maintenance of binding properties is to perform paratope mapping using single scanning alanine substitutions across antibody CDR regions. In this approach, residues that are critical to the maintenance of antibody binding to the antigen can be identified and at the same time permissive sites can be identified where it may be possible to make substitutions of other amino acids desirable for subsequent affinity maturation library construction. Site directed mutagenesis was used to make single alanine substitutions at each residue in the CDRs of VHH-1 (SEQ ID NO: 27) and VHH-2 (SEQ ID NO: 28). Changes in VHH-1 CDR amino acids to alanine are indicated in Table 11 (SEQ ID NOs: 112-137) and for VHH-2 CDRs (SEQ ID NO: 138-162) in Table 12. Mutation positions and residue changes to alanine with respect to the in the parental VHH sequences are referenced by their IMGT position. VHH domains containing the indicated modified CDR-1, CDR-2 or CDR-3 domains were used to construct Fc fusions by direct grafting to the short hinge of the human Fc domain (SEQ ID NO: 34). VHH-Fc constructs were expressed, purified and analyzed for binding to HEK293 cells expressing hCCR8 and the results are reported in Table 11 and Table 12. EC50 values are reported for each Fc fusion antibody containing a modified CDR, along with its respective Bmax value normalized to the to the matched wild type VHH-1-Fc or VHH-2-Fc fusion antibody.

Molecule | binding specificity hCCR8 vs human CCR7 (hCCR8 [1]) | EC50 ([2]; clones tested as VHH-Fc fusions (human IgG1 Fc), HuT-78 cells) | Normalized Bmax (%) ([2]; normalized to VHH-1 or VHH-2 depending on clone family) | EC50 (hCCR8 [3]; VHH-1 CDR alanine mutants as human Fc fusions, HEK293 hCCR8) | % Bmax (hCCR8 [3]; normalized to wild type VHH-1-Fc)
B1 | specific binding to hCCR8 overexpressed in HEK293 cells and not to human CCR7 | – | – | – | –
B2 | specific binding to hCCR8 overexpressed in HEK293 cells and not to human CCR7 | 2.56 nM | 100.0% | 1.73 nM | 100%

From patent publication US20250092146A1, “ANTI-CCR8 ANTIBODIES, CONJUGATES, AND USES THEREOF” (Abilita Bio, Inc., priority 2023, published 2025)
